Kd data for 1 molecule are collected here from PMC10296094 (Cancers, 2023).

This experiment deals with T1, His6-tagged human centrin1 (human, UniProt Q12798 1-172).
T1 sequence (looked up): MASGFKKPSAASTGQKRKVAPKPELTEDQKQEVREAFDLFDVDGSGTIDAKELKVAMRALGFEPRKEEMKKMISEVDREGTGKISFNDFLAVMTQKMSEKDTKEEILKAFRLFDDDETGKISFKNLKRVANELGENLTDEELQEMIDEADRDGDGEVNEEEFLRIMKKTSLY
In words: fluorescence polarisation; fluorescence anisotropy; 2-fold dilution series of centrin1, 100 nM Sfi1 peptide; 10 mM HEPES pH 7.4, 100 mM CaCl2, 0.005% v/v Tween 20; 45 min at RT. The following applies: both partners purified.

Where no end group is shown, it is not given here.

B1: fluorescein-labelled Sfi1 peptide (peptide)
peptide: REVAARESQHNRQLLRGALRRWK
modifications: not fully specified (residue 23)
notes: Sfi1 (mitotic spindle regulator), human, residues 670-692; also called F-Sfi1
The molecule B1 registered a Kd of 30 ± 12 nM.
